Legend:
[1] = biological target: T1, human IL31RA protein (Acrobiosystem, Cat:ILA-H5256) (human, UniProt Q8NI17 20-519, limits assumed); assay: Octet K2 BLI, receptor loaded on protein A tips, antibody in solution
T1 construct: Bought; loaded on protein A sensor tips; also called hIL-31RA; hIL31R
T1 sequence (looked up): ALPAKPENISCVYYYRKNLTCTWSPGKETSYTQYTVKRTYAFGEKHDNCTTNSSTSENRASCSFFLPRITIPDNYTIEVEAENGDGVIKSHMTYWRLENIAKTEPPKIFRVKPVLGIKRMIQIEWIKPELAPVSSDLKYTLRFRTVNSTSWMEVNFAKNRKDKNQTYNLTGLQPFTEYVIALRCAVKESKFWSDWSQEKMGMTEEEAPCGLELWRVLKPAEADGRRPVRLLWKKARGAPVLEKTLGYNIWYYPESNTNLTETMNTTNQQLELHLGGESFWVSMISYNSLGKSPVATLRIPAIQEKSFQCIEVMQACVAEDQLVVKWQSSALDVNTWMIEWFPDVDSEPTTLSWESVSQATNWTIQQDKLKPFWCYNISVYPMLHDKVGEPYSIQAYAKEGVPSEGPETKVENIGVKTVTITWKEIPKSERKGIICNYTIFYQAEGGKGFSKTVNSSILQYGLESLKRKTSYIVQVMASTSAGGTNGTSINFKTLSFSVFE
Experimental: (§1) Binding of the purified antibodies to cECD-IL-31RA was analyzed using the Octet system (BLI technology, Fortebio). Octet K2 instrument was used to measure the binding kinetics of either canine IL-31RA (cIL-31RA) or human IL31RA (hIL-31RA) to 8DE and 3F1 antibodies. cIL-31RA (see example 1) or hIL31R proteins (Acrobiosystem, Cat:ILA-H5256) were attached to the surface of the protein A (fortéBio, Part No: 18-5013) sensor tip (5 ug/ml, 200 ul, 120 sec). […] Then, the antibodies were allowed to dissociate for 600 seconds. All the dilutions were made in PBS-Tween (0.05%) solution. The measurement was corrected for baseline drift by subtracting a control sensor exposed to running buffer (PBS-Tween, 0.05%) only. Data analysis and curve fitting were carried out using the own software (local fitting, 1:1 Langmuir model) of the device.

[2] = biological target: T2, canine IL-31RA expressed on HEK-Blue STAT3 canine IL-31R reporter cells (with canine OSMR) (canine); assay: cell-based or functional assay
[3] = biological target: T3, Recombinant extra cellular domain of canine IL-31 receptor A (cECD-IL-31RA), His-tagged (canine); assay: Octet K2 BLI, cIL-31RA loaded on protein A tips, antibody at 15.6, 3.91, 0.98 nM, 1:1 Langmuir local fit
T3 construct: also called cIL-31RA; cIL31r
T3 chain: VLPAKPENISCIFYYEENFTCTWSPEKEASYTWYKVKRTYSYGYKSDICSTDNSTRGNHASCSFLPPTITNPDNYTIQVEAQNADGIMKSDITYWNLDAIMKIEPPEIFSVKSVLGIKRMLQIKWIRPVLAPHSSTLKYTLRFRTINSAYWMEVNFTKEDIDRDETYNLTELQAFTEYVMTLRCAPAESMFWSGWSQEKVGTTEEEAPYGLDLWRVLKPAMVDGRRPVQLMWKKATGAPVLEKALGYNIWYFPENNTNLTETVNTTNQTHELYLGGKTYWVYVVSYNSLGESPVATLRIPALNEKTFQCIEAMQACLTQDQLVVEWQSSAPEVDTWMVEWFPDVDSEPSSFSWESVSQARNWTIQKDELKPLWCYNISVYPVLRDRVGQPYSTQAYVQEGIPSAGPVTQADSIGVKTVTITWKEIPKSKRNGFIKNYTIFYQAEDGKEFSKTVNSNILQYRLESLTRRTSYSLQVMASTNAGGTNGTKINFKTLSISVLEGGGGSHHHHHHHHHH
Experimental: as §1

[4] = biological target: T2, canine IL-31RA expressed on HEK-Blue …; assay: cell-based or functional assay; remark: listed apart in the source

binding result [1]: no binding | IC50 (read off the curve); STAT3-SEAP reporter, canine IL-31 stimulation [2]: ~0.5 nM | Kd [3]: < 0.001 nM | Mean IC50 (nM) (n = 3), HEK-Blue cell-based SEAP assay [4]: 0.43 nM
B1: 8D3 chimeric canine IgGB antibody (antibody, V domains shown)
VH: EVQLQQSGAELVKPGASVKLSCTASGFNIKDSFIHWLKQRPEQGLEWIGRIDPANGNTEYDPNFQGKDTITADTSSNTAYLQVSSLTSEDTAVYYCARYYYGNSHFDCWGQGTTLTVSS
VL: RIVMNQTPKFLPISAGDRVIITCKASQSVTNDVTWYQQKPGQSPKVLIHYASNRYTGVPDRFTGSGYGTDFTFTISTVQAEDLAVYFCQQDYSSPFTFGSGTKLEIK
notes: also called chimeric 8D3

Reference: patent publication US20250388683A1 (VETOQUINOL, published 2025)
